Results on seven molecules are retold here after publication PMC9429925, “Tight Complex Formation of the Fumarate Sensing DcuS-DcuR Two-Component System at the Membrane and Target Promoter Search by Free DcuR Diffusion” (mSphere, 2022).

As usually defined, the Kd is the equilibrium constant for the complex coming apart. A low value points to a tighter complex. By stoichiometry N is commonly meant the number of molecules, sites or subunits per partner or assembly.

B6: phosphorylated PASC-Kin (PASC-Kin-P) (domain or fragment, E. coli, UniProt P0AEC8 212-539, looked up)
chain: LEPYEISTLFEQRQAMLQSIKEGVVAVDDRGEVTLINDAAQELLNYRKSQDDEKLSTLSHSWSQVVDVSEVLRDGTPRRDEEITIKDRLLLINTVPVRSNGVIIGAISTFRDKTEVRKLMQRLDGLVNYADALRERSHEFMNKLHVILGLLHLKSYKQLEDYILKTANNYQEEIGSLLGKIKSPVIAGFLISKINRATDLGHTLILNSESQLPDSGSEDQVATLITTLGNLIENALEALGPEPGGEISVTLHYRHGWLHCEVNDDGPGIAPDKIDHIFDKGVSTKGSERGVGLALVKQQVENLGGSIAVESEPGIFTQFFVQIPWDGE
modifications: phosphorylated by autophosphorylation with ATP; phosphorylation site His349
notes: cytoplasmic part of E. coli DcuS, residues 212-539, autophosphorylated with ATP; source: E. coli BL21(DE3), purified (Ni-NTA agarose), then incubated with 1 mM ATP; not shown: His6, N-terminal, kept
B7: His6-PASc-Kin (DcuS [AS 212-539]) (domain or fragment, E. coli, UniProt P0AEC8 212-539, looked up)
chain: LEPYEISTLFEQRQAMLQSIKEGVVAVDDRGEVTLINDAAQELLNYRKSQDDEKLSTLSHSWSQVVDVSEVLRDGTPRRDEEITIKDRLLLINTVPVRSNGVIIGAISTFRDKTEVRKLMQRLDGLVNYADALRERSHEFMNKLHVILGLLHLKSYKQLEDYILKTANNYQEEIGSLLGKIKSPVIAGFLISKINRATDLGHTLILNSESQLPDSGSEDQVATLITTLGNLIENALEALGPEPGGEISVTLHYRHGWLHCEVNDDGPGIAPDKIDHIFDKGVSTKGSERGVGLALVKQQVENLGGSIAVESEPGIFTQFFVQIPWDGE
notes: cytoplasmic part of E. coli DcuS (Linker, PASC and kinase domains), residues 212-539; unphosphorylated; pET28a derivative; homodimer by SEC (Mr 84 kDa, monomer 40.4 kDa); also called His6-PASc-Kinase; 6His-PASc-Kinase; source: E. coli BL21(DE3), purified (Ni-NTA agarose); not shown: His6, N-terminal, kept

The target of one data set is T1, T25-DcuR(D56N) (E. coli, UniProt P0AD01 1-239, D56N).
T1 construct: E. coli DcuR, as pMW427 (T25-DcuR) with the phosphorylation site Asp56 changed to Asn; source: bacterial two-hybrid (BACTH) fusion in E. coli BTH101; not shown: T25 domain of Bordetella pertussis adenylate cyclase, N-terminal, kept
T1 sequence (looked up): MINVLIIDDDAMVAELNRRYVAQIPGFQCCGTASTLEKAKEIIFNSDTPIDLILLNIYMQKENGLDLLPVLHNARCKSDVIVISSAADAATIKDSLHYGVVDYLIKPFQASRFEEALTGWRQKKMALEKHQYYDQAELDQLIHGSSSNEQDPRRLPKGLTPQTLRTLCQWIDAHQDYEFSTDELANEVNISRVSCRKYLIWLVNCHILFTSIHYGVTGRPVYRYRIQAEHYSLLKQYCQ
The data set can be described thus: two-hybrid; bacterial two-hybrid BACTH in E. coli BTH101 (ΔcyaA); T25 N-terminally on DcuR, T18 C-terminally on DcuS or PASC-Kin; β-galactosidase activity in Miller units; wild-type pair also with fumarate. Conditions: partners not purified.

In another data set the target is T2, T25-DcuR (E. coli, UniProt P0AD01 1-239).
T2 construct: response regulator DcuR of E. coli (REC and HTH domains); also called DcuR-fusion; source: bacterial two-hybrid (BACTH) fusion in E. coli BTH101; not shown: T25 domain of Bordetella pertussis adenylate cyclase, N-terminal, kept
T2 sequence (looked up): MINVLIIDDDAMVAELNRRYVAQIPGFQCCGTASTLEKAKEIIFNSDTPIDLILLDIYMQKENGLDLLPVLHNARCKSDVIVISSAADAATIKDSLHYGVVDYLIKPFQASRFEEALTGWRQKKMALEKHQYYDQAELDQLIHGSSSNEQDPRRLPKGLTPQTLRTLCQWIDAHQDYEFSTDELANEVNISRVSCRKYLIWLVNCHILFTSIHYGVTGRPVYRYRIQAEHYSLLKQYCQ
The data set is described as above. To be noted: partners not purified.

The target in data set [1] is B7. Put plainly: MST; eYFP-L-DcuR at 0.1 μM, His6-PASC-Kin titrated from 10^-1 to 2 x 10^4 nM; Tris/HCl pH 7.7, 10 mM MgCl2, 2 mM DTT; 25°C; Monolith NT.115; 1:1 binding model; Kd refers to monomer concentrations. Conditions: both partners purified.
In data set [2] the target is B6. The data set is described as above. To be noted: both partners purified.
A further data set concerns the target T3, His6-DcuR (E. coli, UniProt P0AD01 1-239).
T3 construct: response regulator DcuR of E. coli; unphosphorylated; also called DcuR-6His; source: E. coli BL21(DE3), purified (Ni-NTA agarose)
T3 sequence (looked up): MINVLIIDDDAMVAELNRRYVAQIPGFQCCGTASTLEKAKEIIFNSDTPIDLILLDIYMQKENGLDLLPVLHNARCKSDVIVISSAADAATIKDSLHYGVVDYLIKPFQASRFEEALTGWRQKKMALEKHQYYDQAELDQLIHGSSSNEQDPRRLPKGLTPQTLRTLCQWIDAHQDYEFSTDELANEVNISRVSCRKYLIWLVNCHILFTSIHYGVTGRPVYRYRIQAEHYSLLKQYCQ
The data set can be described thus: SEC; mixtures of PASC-Kin and DcuR (phosphate-free or phosphorylated), molar ratios 1:1.44, 1:2, 1:1.4 with PASC-Kin at 40.4 μM (also 1:0.2, 1:5, 1:10 for PASC-Kin-P and DcuR); HiLoad 16/600 Sephadex 200; peak fractions analysed by SDS-PAGE and quantified with ImageJ. To be noted: both partners purified.

Data set [3] deals with the molecule itself. The description is as above.
Data set [4] concerns the molecule itself. Put plainly: SEC; each protein alone on HiLoad 16/600 Sephadex 200; His6-PASc-Kinase 45 μM, DcuR 55 μM; 50 mM Tris-HCl, 1 mM DTT, 50 mM KCl, 5 mM MgCl2, pH 7.7, 25°C; Mr by calibration with protein standards. For orientation: SEC sorts molecules by how far they enter the pores of the column.

B1: DcuS-T18 (natural protein, E. coli, UniProt P0AEC8 1-543, looked up)
chain: MRHSLPYRMLRKRPMKLSTTVILMVSAVLFSVLLVVHLIYFSQISDMTRDGLANKALAVARTLADSPEIRQGLQKKPQESGIQAIAEAVRKRNDLLFIVVTDMQSLRYSHPEAQRIGQPFKGDDILKALNGEENVAINRGFLAQALRVFTPIYDENHKQIGVVAIGLELSRVTQQINDSRWSIIWSVLFGMLVGLIGTCILVKVLKKILFGLEPYEISTLFEQRQAMLQSIKEGVVAVDDRGEVTLINDAAQELLNYRKSQDDEKLSTLSHSWSQVVDVSEVLRDGTPRRDEEITIKDRLLLINTVPVRSNGVIIGAISTFRDKTEVRKLMQRLDGLVNYADALRERSHEFMNKLHVILGLLHLKSYKQLEDYILKTANNYQEEIGSLLGKIKSPVIAGFLISKINRATDLGHTLILNSESQLPDSGSEDQVATLITTLGNLIENALEALGPEPGGEISVTLHYRHGWLHCEVNDDGPGIAPDKIDHIFDKGVSTKGSERGVGLALVKQQVENLGGSIAVESEPGIFTQFFVQIPWDGERSNR
notes: membrane-integral C4-dicarboxylate sensor kinase DcuS of E. coli, full length; also called full-length DcuS; DcuS-fusion; source: bacterial two-hybrid (BACTH) fusion in E. coli BTH101; not shown: T18 domain of Bordetella pertussis adenylate cyclase, C-terminal, kept
Consider B1, for which the “% of wild-type BACTH activity” value in the data set with T25-DcuR(D56N) was determined as 94%.

B2: DcuS(H349A)-T18 (natural protein, E. coli, UniProt P0AEC8 1-543, looked up)
chain: MRHSLPYRMLRKRPMKLSTTVILMVSAVLFSVLLVVHLIYFSQISDMTRDGLANKALAVARTLADSPEIRQGLQKKPQESGIQAIAEAVRKRNDLLFIVVTDMQSLRYSHPEAQRIGQPFKGDDILKALNGEENVAINRGFLAQALRVFTPIYDENHKQIGVVAIGLELSRVTQQINDSRWSIIWSVLFGMLVGLIGTCILVKVLKKILFGLEPYEISTLFEQRQAMLQSIKEGVVAVDDRGEVTLINDAAQELLNYRKSQDDEKLSTLSHSWSQVVDVSEVLRDGTPRRDEEITIKDRLLLINTVPVRSNGVIIGAISTFRDKTEVRKLMQRLDGLVNYADALRERSAEFMNKLHVILGLLHLKSYKQLEDYILKTANNYQEEIGSLLGKIKSPVIAGFLISKINRATDLGHTLILNSESQLPDSGSEDQVATLITTLGNLIENALEALGPEPGGEISVTLHYRHGWLHCEVNDDGPGIAPDKIDHIFDKGVSTKGSERGVGLALVKQQVENLGGSIAVESEPGIFTQFFVQIPWDGERSNR
notes: E. coli DcuS, as pMW428 (full-length DcuS-T18) with the phosphorylation site His349 changed to Ala; source: bacterial two-hybrid (BACTH) fusion in E. coli BTH101; not shown: T18 domain of Bordetella pertussis adenylate cyclase, C-terminal, kept
Take B2: the “% of wild-type BACTH activity” value with T25-DcuR came out at 94%.

B3: PASC-Kin(H349A)-T18 (domain or fragment, E. coli, UniProt P0AEC8 211-539, looked up)
chain: GLEPYEISTLFEQRQAMLQSIKEGVVAVDDRGEVTLINDAAQELLNYRKSQDDEKLSTLSHSWSQVVDVSEVLRDGTPRRDEEITIKDRLLLINTVPVRSNGVIIGAISTFRDKTEVRKLMQRLDGLVNYADALRERSAEFMNKLHVILGLLHLKSYKQLEDYILKTANNYQEEIGSLLGKIKSPVIAGFLISKINRATDLGHTLILNSESQLPDSGSEDQVATLITTLGNLIENALEALGPEPGGEISVTLHYRHGWLHCEVNDDGPGIAPDKIDHIFDKGVSTKGSERGVGLALVKQQVENLGGSIAVESEPGIFTQFFVQIPWDGE
notes: cytoplasmic part of E. coli DcuS, as pMW1076 [DcuS(211-539)] with H349A; source: bacterial two-hybrid (BACTH) fusion in E. coli BTH101; not shown: T18 domain of Bordetella pertussis adenylate cyclase, C-terminal, kept
As to B3, the “% of wild-type BACTH activity” value with T25-DcuR came to 108%.

B4: eYFP-L-DcuR (natural protein, E. coli, UniProt P0AD01 1-239, looked up)
chain: MINVLIIDDDAMVAELNRRYVAQIPGFQCCGTASTLEKAKEIIFNSDTPIDLILLDIYMQKENGLDLLPVLHNARCKSDVIVISSAADAATIKDSLHYGVVDYLIKPFQASRFEEALTGWRQKKMALEKHQYYDQAELDQLIHGSSSNEQDPRRLPKGLTPQTLRTLCQWIDAHQDYEFSTDELANEVNISRVSCRKYLIWLVNCHILFTSIHYGVTGRPVYRYRIQAEHYSLLKQYCQ
notes: response regulator DcuR of E. coli, joined genetically to eYFP by a short linker; unphosphorylated; The His6 tag is printed at the N-terminus and at the C-terminus in the same paragraph; also called eYfp-Linker-DcuR; His6-eYfp-Linker-DcuR; source: E. coli BL21(DE3), purified (Ni-NTA agarose)
B4: the Kd in data set [1] turned out to be 1380 nM; in data set [2], 22 nM.

B5: eYFP-L-DcuR-P (natural protein, E. coli, UniProt P0AD01 1-239, looked up)
chain: MINVLIIDDDAMVAELNRRYVAQIPGFQCCGTASTLEKAKEIIFNSDTPIDLILLDIYMQKENGLDLLPVLHNARCKSDVIVISSAADAATIKDSLHYGVVDYLIKPFQASRFEEALTGWRQKKMALEKHQYYDQAELDQLIHGSSSNEQDPRRLPKGLTPQTLRTLCQWIDAHQDYEFSTDELANEVNISRVSCRKYLIWLVNCHILFTSIHYGVTGRPVYRYRIQAEHYSLLKQYCQ
modifications: phosphorylated with carbamoyl phosphate; phosphorylation site Asp56 of DcuR
notes: response regulator DcuR of E. coli, joined genetically to eYFP by a short linker, phosphorylated with carbamoyl phosphate; also called eYFP-DcuR~P; source: E. coli BL21(DE3), purified (Ni-NTA agarose), then incubated with 50 mM carbamoyl phosphate
In turn, B5 came in with an equilibrium dissociation constant (Kd) in data set [1] of 28 nM.
In the case of B6, the “stoichiometry N” value in the data set with His6-DcuR was 0.86 mol DcuR/mol PASC-Kin. Besides, the binding result in data set [3] is listed as “binds”.
With B7, the “stoichiometry N” value in data set [4] was 2.
